Experimental findings from article PMC2248197 are described below.

The target in this test is Xop411 p09, major capsid subunit (major coat protein) (Xanthomonas oryzae phage Xop411). Description: SDS-PAGE of virion proteins with LC-MS/MS of the bands.

Where “and” joins values, the source holds several entries; their conditions need not be identical. Equal values may be shown once.

By stoichiometry N is commonly meant a count of units in the complex or per binding partner.

Regarding “Xop411 p09, major capsid subunit (major coat protein) (natural protein)”, the stoichiometry N is 2 subunits and 6 subunits.
